In the test the target is amyloid-β (Aβ) peptide (human (endogenous in brain tissue)) (UniProt P05067). Put plainly: 2D-PAGE immunoblot; Aβ immunoprecipitated (4G8 and 6E10) from tris- and FA-soluble fractions of human frontal cortex, eluted in rehydration buffer (8.3 M urea, 0.5% CHAPS, 20 mM DTT), IEF pH 3-10, 4-12% Bis-Tris gel, blot with 6E10; oligomer size assigned from the band's mass.

Where “and” joins values, the source holds several entries; their conditions need not be identical. Equal values may be shown once.

Consider “amyloid-β (Aβ) peptide (from UniProt P05067 672-713) (peptide; other documents disagree on this pair)”, for which the stoichiometry N (in general, a count of units in the complex or per binding partner) is 5 and 6.
